Experiments:
Assay in all cases: cell-based or functional assay
BMP-10 = molecular target: T1, BMP-10 (UniProt O95393)
T1 sequence (looked up): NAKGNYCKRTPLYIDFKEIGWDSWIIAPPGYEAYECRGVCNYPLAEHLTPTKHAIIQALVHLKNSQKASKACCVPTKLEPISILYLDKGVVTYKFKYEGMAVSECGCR

BMP-9 = molecular target: T2, BMP-9 (UniProt Q9UK05)
T2 sequence (looked up): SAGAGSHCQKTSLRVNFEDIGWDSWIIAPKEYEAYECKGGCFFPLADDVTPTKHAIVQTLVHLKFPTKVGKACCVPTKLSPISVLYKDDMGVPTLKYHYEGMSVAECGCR

GDF-11 = molecular target: T3, GDF-11 (UniProt O95390)
T3 sequence (looked up): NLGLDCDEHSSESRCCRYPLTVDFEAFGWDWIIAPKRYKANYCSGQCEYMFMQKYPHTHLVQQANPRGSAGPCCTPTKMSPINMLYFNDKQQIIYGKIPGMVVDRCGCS

GDF-8 = molecular target: T4, GDF-8 (UniProt O14793)
T4 sequence (looked up): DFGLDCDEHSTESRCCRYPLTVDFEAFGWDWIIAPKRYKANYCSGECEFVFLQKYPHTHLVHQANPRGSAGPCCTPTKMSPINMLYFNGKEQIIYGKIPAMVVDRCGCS

activin A = molecular target: T5, activin A (UniProt P08476)
T5 sequence (looked up): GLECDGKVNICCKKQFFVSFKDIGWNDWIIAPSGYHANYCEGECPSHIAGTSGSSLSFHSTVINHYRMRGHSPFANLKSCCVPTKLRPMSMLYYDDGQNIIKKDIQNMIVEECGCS

activin B = molecular target: T6, activin B (UniProt P09529)
T6 sequence (looked up): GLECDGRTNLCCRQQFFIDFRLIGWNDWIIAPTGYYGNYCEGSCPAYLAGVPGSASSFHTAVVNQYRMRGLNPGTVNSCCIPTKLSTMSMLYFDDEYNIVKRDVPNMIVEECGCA

Average IC50, BMP-10 neutralization (HepG2 BMP-reporter) (BMP-10) [nM] | Average IC50, BMP-9 neutralization (HepG2 BMP-reporter) (BMP-9) [nM] | Avg IC50, GDF-11 neutralization (HEK293 TGFβ-reporter) (GDF-11) [nM] | Avg IC50, GDF-8 neutralization (HEK293 TGFβ-reporter) (GDF-8) [nM] | Avg IC50, activin A neutralization (HEK293 TGFβ-reporter) (activin A) [nM] | Avg IC50, activin B neutralization (HEK293 TGFβ-reporter) (activin B) [nM] | Substance | other results
2 | 2.7 | 0.76 | 0.67 | 2.3 | 1.4 | P75 (wild type human ActRIIB-ECD-Fc) (Fc fusion) | 
3.7 | 248 | 1.6 | 3.1 | 2.7 | 0.95 | P444 (wild type human ActRIIA-ECD-Fc) (Fc fusion) | IC50, BMP-9 neutralization (HepG2 BMP-reporter) (BMP-9): > 100 nM; IC50, GDF-8 neutralization (HEK293 TGFβ-reporter) (GDF-8): 3.06 nM
1.9 | 1.8 | 0.73 | 0.65 | 0.79 | 1.3 | P694 (hActRIIB - F58Y, 14aa linker, IgG1 FcDL) (Fc fusion) | 
 | 657 |  | 2.1 | 4.3 |  | P698 (hActRIIB - F58K, 3aa linker, IgG1 FcDL) (Fc fusion) | fold lower inhibition potency relative to P444 (BMP-9): 2.6 fold; fold higher inhibition potency relative to P444 (GDF-8): 1.5 fold
0.96 | 386 | 0.75 | 1.1 | 0.52 | 0.55 | P701 (hActRIIB - F58K, 14aa linker, IgG1 FcDL) (Fc fusion) | 
1.4 | 110 | 0.42 | 0.55 | 0.62 | 0.66 | P708 (hActRIIB - F58Q, 14aa linker, IgG1 FcDL) (Fc fusion) | 
 | 58 |  | 0.29 | 0.42 |  | P709 (hActRIIB - F58Q, 39aa linker, IgG1 FcDL) (Fc fusion) | fold increase of inhibition potency relative to P1218 (GDF-8): 2.8 fold; fold increase of inhibition potency relative to P1218 (activin A): 2.6 fold
2.4 | 60 | 0.9 | 0.83 | 0.9 | 1.4 | P715 (hActRIIB - F58W, 14aa linker, IgG1 FcDL) (Fc fusion) | 
> 1000 | > 1000 | > 1000 | > 1000 | > 1000 | > 1000 | P718 (hActRIIB - D57E + F58E, 3aa linker, IgG1 FcDL) (Fc fusion) | 
1.7 | > 100 | 0.58 | 0.61 | 0.63 | 2.3 | P719 (hActRIIB - Q29Y + F58E, 14aa linker, IgG1 FcDL) (Fc fusion) | 
2.3 | 914 | 0.54 | 0.77 | 0.97 | 2.7 | P720 (hActRIIB - D30Q + F58E, 14aa linker, IgG1 FcDL) (Fc fusion) | 
1.2 | 0.27 | 0.34 | 0.31 | 0.47 | 0.55 | P757 (WT hActRIIB, 14aa linker, IgG1 FcDL) (Fc fusion) | % increase of potency relative to P75 (BMP-10): 67%; % increase of potency relative to P75 (BMP-9): 900%; % increase of potency relative to P75 (GDF-11): 124%; % increase of potency relative to P75 (GDF-8): 116%; % increase of potency relative to P75 (activin A): 389%; % increase of potency relative to P75 (activin B): 155%
1.9 | 1.2 | 1.4 |  | 1.1 | 2.4 | P758 (hActRIIB - G27D, 14aa linker, IgG1 FcDL) (Fc fusion) | 
> 1000 | > 1000 | 137 | 397 | 274 | 227 | P759 (hActRIIB - D57E, 14aa linker, IgG1 FcDL) (Fc fusion) | % increase of potency relative to P120 (GDF-11): 86%; % increase of potency relative to P120 (GDF-8): 60%; % increase of potency relative to P120 (activin A): 73%; % increase of potency relative to P120 (activin B): 77%
22 | 8.7 | 8.6 | 12 | 8.4 | 41 | P761 (hActRIIB - K31Y, 14aa linker, IgG1 FcDL) (Fc fusion) | % increase of potency relative to P124 (BMP-9): 83%; % decrease of potency relative to P124 (GDF-11): 61%; % decrease of potency relative to P124 (GDF-8): 64%; % decrease of potency relative to P124 (activin A): 58%; % decrease of potency relative to P124 (activin B): 88%
> 1000 | > 1000 | 27 | 66 | > 1000 | > 1000 | P762 (hActRIIB - V75Q, 14aa linker, IgG1 FcDL) (Fc fusion) | 

— US20230287084A1
